Test results from patent publication US20260184766A1.

B1: SKD chimeric bovine-human IgG1 (ultralong CDR3) (antibody)
VH: QVQLRESGPSLVKPSQTLSLTCTASGFSLSDKAVGWVRQAPGKALEWLGSIDTGGNTGYNPGLKSRLSITKDNSKSQVSLSVSSVTTEDSATYYCTTVHQRTSEKRSCPGGSSRRYPSGASCDVSGGACACYVSNCRGVLCPTLNEIVAYTYEWHVDAWGQGLLVTVSS
VL: QAVLNQPSSVSGSLGQRVSITCSGSSSNVGNGYVSWYQLIPGSAPRTLIYGDTSRASGVPDRFSGSRSGNTATLTISSLQAEDEADYFCASAEDSSSNAVFGSGTTLTVL
B2: SKM chimeric bovine-human IgG1 (ultralong CDR3) (antibody)
VH: QVQLRESGPSLVKPSQTLSLTCTASGFSLSDKAVGWVRQAPGKALEWLGSIDTGGNTGYNPGLKSRLSITKDNSKSQVSLSVSSVTTEDSATYYCTTVHQETLRSCPDGYIDNSGCTADWGCAALDCWRRRFGYHSTDPSHYTGATYIYTYSLHIDAWGQGLLVTVSS
VL: QAVLNQPSSVSGSLGQRVSITCSGSSSNVGNGYVSWYQLIPGSAPRTLIYGDTSRASGVPDRFSGSRSGNTATLTISSLQAEDEADYFCASAEDSSSNAVFGSGTTLTVL
B3: R4C1 chimeric bovine-human IgG1 (ultralong CDR3) (antibody)
VH: QVQLRESGPSLVKPSQTLSLTCTASGFSLSDKAVGWVRQAPGKPLEWLGSIDTAENTGYNPGLKSRLSITKDNSKSQVSLSVSSVTTEDSATYYCATVHQKTRKEKNCPDGYIYSSNTASGYDCGVWICRRVGSAFCSRTGDYTSPSEFDIYEFYVEGWGQGLLVTVSS
VL: QAVLNQPSSVSGSLGQRVSITCSGSSSNVGNGYVSWYQLIPGSAPRTLIYGDTSRASGVPDRFSGSRSGNTATLTISSLQAEDEADYFCASAEDSSSNAVFGSGTTLTVL
B4: R2D9 chimeric bovine-human IgG1 (ultralong CDR3) (antibody)
VH: QVQLRESGPSLVKPSQTLSLTCTASGFSLSDKAIGWVRQAPGKALEWLGSIDTRGNTGYNPGLKSRLSITKDSSKSQVSLSVNSVTTEDSATYLCAIVQQITHKTCPNGYNWFDRCCSWDGTCGDGCCSNRAWPSGNGRADSSIGETYGYEFHVAAWGQGLLVTVSS
VL: QAVLNQPSSVSGSLGQRVSITCSGSSSNVGNGYVSWYQLIPGSAPRTLIYGDTSRASGVPDRFSGSRSGNTATLTISSLQAEDEADYFCASAEDSSSNAVFGSGTTLTVL

Tests used:
[1] = target: SARS-CoV-2 S variant 484K carried by pseudotyped virus (SARS-CoV-2), P0DTC2; experiment: cell-based or functional assay
[2] = target: SARS-CoV-2 S variant K417N/E484K/N501Y (B.1.351, SA variant; beta lineage) carried by pseudotyped virus (SARS-CoV-2 B.1.351), P0DTC2; experiment: cell-based or functional assay
[3] = target: SARS CoV-2 omicron variant recombinant stabilized spike trimer (SARS-CoV-2 omicron variant)
[4] = target: SARS CoV-2 omicron variant spike RBD (SARS-CoV-2 omicron variant); experiment: ELISA on omicron variant RBD (panel RBD), OD450

Binder	EC50 (pM), pseudovirus luciferase assay [1]	EC50 (pM), pseudovirus luciferase assay [2]	Neutralization of Pseudovirus (ng/mL; parameter not named) [2]	EC50 (read off the curve) [3]	EC50 (read off the curve) [4]
B1	> 1000 pM	> 1000 pM	> 1000 ng/mL	–	–
B2	> 1000 pM	> 1000 pM	> 1000 ng/mL	–	–
B3	–	–	375 ng/mL	–	–
B4	–	–	–	0.4 nM	0.4 nM
